Results reported in patent US20130323237A1 (Novartis, published 2013).

Assays:
[1] = target: T1, recombinant human TSLP (R&D Systems) (human, UniProt Q969D9 29-159); test: SPR (Biacore), biotinylated recombinant human TSLP on SA-chip, Fab as analyte
T1 construct: also called hTSLP; human thymic stromal lymphopoietin
Description: A respective amount of biotinylated human serum albumin (HSA) was immobilized on the reference flow cell. […] The Fabs were applied in concentration series of 16-500 nM at a flow rate of 20 μl/min. Association phase was set to 60 s and dissociation phase to 120 s.

[2] = target: T1, recombinant human TSLP (R&D Systems); test: BioVeris electrochemiluminescence screening, Fab in E. coli lysate on biotinylated TSLP coupled to streptavidin beads
Description: BEL extracts were diluted in assay buffer (PBS/0.05% Tween20/0.5% BSA) for use in BioVeris screening.

Binder | binding result [1] | binding result [2]
MOR04609 Fab (Fab, V domains shown, carries two C-terminal tags (FLAG and 6xHis)) VH: QVQLQQSGPGLVKPSQTLSLTCAISGDSVSSNSAAWGWIRQSPGRGLEWLGRIYYRSKWLNDYAVSVKSRITINPDTSKNQFSLQLNSVTPEDTAVYYCARDGGWYIDVWGQGTLVTVSS VL: DIELTQPPSVSVAPGQTARISCSGDNLGSYYANWYQQKPGQAPVLVIYEDKRPSGIPERFSGSNSGNTATLTISGTQAEDEADYYCQSFDSYHSDYVFGGGTKLTVLG | binds | 
MOR05008 Fab (Fab, V domains shown) VH: QVQLVQSGAEVKKPGSSVKVSCKASGGTFSSYAISWVRQAPGQGLEWMGGIIPEFGFTNYAQKFQGRVTITADESTSTAYMELSSLRSEDTAVYYCARSGMFYSILFDYWGQGTLVTVSS VL: DIQMTQSPSSLSASVGDRVTITCRASQDIYNYLNWYQQKPGKAPKLLIYGASSLQSGVPSRFSGSGSGTDFTLTISSLQPEDFAVYYCQQQNDYPLTFGQGTKVEIKR |  | binds
MOR05009 Fab (Fab, V domains shown) VH: QVQLVQSGAEVKKPGSSVKVSCKASGGTFSSYAISWVRQAPGQGLEWMGHISPEFGFTNYAQKFQGRVTITADESTSTAYMELSSLRSEDTAVYYCARSGMFYSILFDYWGQGTLVTVSS VL: DIQMTQSPSSLSASVGDRVTITCRASQDIYNYLNWYQQKPGKAPKLLIYGASSLQSGVPSRFSGSGSGTDFTLTISSLQPEDFAVYYCQQQNDYPLTFGQGTKVEIKR |  | binds
MOR05013 Fab (Fab, V domains shown) VH: QVQLVESGGGLVQPGGSLRLSCAASGFTFSSYYMSWVRQAPGKGLEWVSGIFFDGETYYADSVKGRFTISRDNSKNTLYLQMNSLRAEDTAVYYCARQQYFDHIDIWGQGTLVTVSS VL: DIELTQPPSVSVAPGQTARISCGGDSLGGKYVYWYQQKPGQAPVLVIYGDSKRPSGIPERFSGSNSGNTATLTISGTQAEDEADYYCQSYTNALSTVFGGGTKLTVLG |  | binds
MOR05010 Fab (Fab, V domains shown) VH: QVQLVESGGGLVQPGGSLRLSCAASGFTFSSYYMSWVRQAPGKGLEWVSGIFFDGETYYAGSVKGRFTISRDNSKNTLYLQMNSLRAEDTAVYYCARQQYFDHIDIWGQGTLVTVSS VL: DIELTQPPSVSVAPGQTARISCGGDSLGGKYVYWYQQKPGQAPVLVIYGDSKRPSGIPERFSGSNSGNTATLTISGTQAEDEADYYCQSYTNALSTVFGGGTKLTVLG |  | binds
MOR05011 Fab (Fab, V domains shown) VH: QVQLVESGGGLVQPGGSLRLSCAASGFTFSSYYMSWVRQAPGKGLEWVSGIFYDGSTYYPDSVKGRFTISRDNSKNTLYLQMNSLRAEDTAVYYCARQQYFDHIDIWGQGTLVTVSS VL: DIELTQPPSVSVAPGQTARISCGGDSLGGKYVYWYQQKPGQAPVLVIYGDSKRPSGIPERFSGSNSGNTATLTISGTQAEDEADYYCQSYTNALSTVFGGGTKLTVLG |  | binds
MOR05012 Fab (Fab, V domains shown) VH: QVQLVESGGGLVQPGGSLRLSCAASGFTFSSYYMSWVRQAPGKGLEWVSGIFFTGETYYPDSVKGRFTISRDNSKNTLYLQMNSLRAEDTAVYYCARQQYFDHIDIWGQGTLVTVSS VL: DIELTQPPSVSVAPGQTARISCGGDSLGGKYVYWYQQKPGQAPVLVIYGDSKRPSGIPERFSGSNSGNTATLTISGTQAEDEADYYCQSYTNALSTVFGGGTKLTVLG |  | binds
MOR05014 Fab (Fab, V domains shown) VH: QVQLVESGGGLVQPGGSLRLSCAASGFTFSSYYMSWVRQAPGKGLEWVSGIFFDGTTYYADSVKGRFTISRDNSKNTLYLQMNSLRAEDTAVYYCARQQYFDHIDIWGQGTLVTVSS VL: DIELTQPPSVSVAPGQTARISCGGDSLGGKYVYWYQQKPGQAPVLVIYGDSKRPSGIPERFSGSNSGNTATLTISGTQAEDEADYYCQSYTNALSTVFGGGTKLTVLG |  | binds
MOR05015 Fab (Fab, V domains shown) VH: QVQLVESGGGLVQPGGSLRLSCAASGFTFSSYYMSWVRQAPGKGLEWVSGTFFDGSTYYADSVKGRFTISRDNSKNTLYLQMNSLRAEDTAVYYCARQQYFDHIDIWGQGTLVTVSS VL: DIELTQPPSVSVAPGQTARISCGGDSLGGKYVYWYQQKPGQAPVLVIYGDSKRPSGIPERFSGSNSGNTATLTISGTQAEDEADYYCQSYTNALSTVFGGGTKLTVLG |  | binds
MOR05016 Fab (Fab, V domains shown) VH: QVQLVESGGGLVQPGGSLRLSCAASGFTFSSYYMSWVRQAPGKGLEWVSNISYDSSDTYYADSVKGRFTISRDNSKNTLYLQMNSLRAEDTAVYYCARQQYFDHIDIWGQGTLVTVSS VL: DIELTQPPSVSVAPGQTARISCGGDSLGGKYVYWYQQKPGQAPVLVIYGDSKRPSGIPERFSGSNSGNTATLTISGTQAEDEADYYCQSYDLQSLNIVFGGGTKLTVLG |  | binds
MOR05017 Fab (Fab, V domains shown) VH: QVQLVESGGGLVQPGGSLRLSCAASGFTFSSYYMSWVRQAPGKGLEWVSNISYDSSDTYYADSVKGRFTISRDNSKNTLYLQMNSLRAEDTAVYYCARQQYFDHIDIWGQGTLVTVSS VL: DIELTQPPSVSVAPGQTARISCGGDSLGGKYVYWYQQKPGQAPVLVIYGDSKRPSGIPERFSGSNSGNTATLTISGTQAEDEADYYCQSYDLKSLNVVFGGGTKLTVLG |  | binds
MOR05018 Fab (Fab, V domains shown) VH: QVQLVESGGGLVQPGGSLRLSCAASGFTFSSYYMSWVRQAPGKGLEWVSNISYDSSDTYYADSVKGRFTISRDNSKNTLYLQMNSLRAEDTAVYYCARQQYFDHIDIWGQGTLVTVSS VL: DIELTQPPSVSVAPGQTARISCGGDSLGGKYVYWYQQKPGQAPVLVIYGDSKRPSGIPERFSGSNSGNTATLTISGTQAEDEADYYCQSYDLGSLNLVFGGGTKLTVLG |  | binds
MOR05019 Fab (Fab, V domains shown, also called MOR5019) VH: QVQLVESGGGLVQPGGSLRLSCAASGFTFSNHALSWVRQAPGKGLEWVSVISFDGVKFYADSVKGRFTISRDNSKNTLYLQMNSLRAEDTAVYYCARYYGYSYMDYWGQGTLVTVSS VL: DIELTQPPSVSVAPGQTARISCSGDNLGSKYVHWYQQKPGQAPVLVIYADNNRPSGIPERFSGSNSGNTATLTISGTQAEDEADYYCQSYDHMLQVFGGGTKLTVLG |  | binds
MOR05020 Fab (Fab, V domains shown) VH: QVQLVESGGGLVQPGGSLRLSCAASGFTFSNHALSWVRQAPGKGLEWVSGIQYDGSNTGYADSVKGRFTISRDNSKNTLYLQMNSLRAEDTAVYYCARYYGYSYMDYWGQGTLVTVSS VL: DIELTQPPSVSVAPGQTARISCSGDNLGSKYVHWYQQKPGQAPVLVIYADNNRPSGIPERFSGSNSGNTATLTISGTQAEDEADYYCSSYDSNSIRVFGGGTKLTVLG |  | binds
MOR05021 Fab (Fab, V domains shown) VH: QVQLVESGGGLVQPGGSLRLSCAASGFTFSNHALSWVRQAPGKGLEWVSGIQYDGSNTGYADSVKGRFTISRDNSKNTLYLQMNSLRAEDTAVYYCARYYGYSYMDYWGQGTLVTVSS VL: DIELTQPPSVSVAPGQTARISCSGDNLGSKYVHWYQQKPGQAPVLVIYADNNRPSGIPERFSGSNSGNTATLTISGTQAEDEADYYCSSYDLDGVRVFGGGTKLTVLG |  | binds
MOR05022 Fab (Fab, V domains shown) VH: QVQLVESGGGLVQPGGSLRLSCAASGFTFSNHALSWVRQAPGKGLEWVSGIQYDGSNTGYADSVKGRFTISRDNSKNTLYLQMNSLRAEDTAVYYCARYYGYSYMDYWGQGTLVTVSS VL: DIELTQPPSVSVAPGQTARISCSGDNLGSKYVHWYQQKPGQAPVLVIYADNNRPSGIPERFSGSNSGNTATLTISGTQAEDEADYYCSSYTTSGIRVFGGGTKLTVLG |  | binds
MOR05024 Fab (Fab, V domains shown) VH: QVQLVQSGAEVKKPGSSVKVSCKASGGTFSSYAISWVRQAPGQGLEWMGNIYPIFGYANYAQKFQGRVTITADESTSTAYMELSSLRSEDTAVYYCARYGQYGQHFSHGGMDVWGQGTLVTVSS VL: DIQMTQSPSSLSASVGDRVTITCRASQDISISLTWYQQKPGKAPKLLIYGAFSLQSGVPSRFSGSGSGTDFTLTISSLQPEDFATYYCQQFWFEPVTFGQGTKVEIKR |  | binds
MOR05023 Fab (Fab, V domains shown) VH: QVQLVQSGAEVKKPGSSVKVSCKASGGTFSSYAISWVRQAPGQGLEWMGNIYPIFGYANYAQKFQGRVTITADESTSTAYMELSSLRSEDTAVYYCARYGQYGQHFSHGGMDVWGQGTLVTVSS VL: DIQMTQSPSSLSASVGDRVTITCRASQDISISLTWYQQKPGKAPKLLIYGAFSLQSGVPSRFSGSGSGTDFTLTISSLQPEDFATYYCQQFYFHSPTFGQGTKVEIKR |  | binds
MOR05025 Fab (Fab, V domains shown) VH: QVQLVQSGAEVKKPGSSVKVSCKASGGTFSSYAISWVRQAPGQGLEWMGNIYPIFGYANYAQKFQGRVTITADESTSTAYMELSSLRSEDTAVYYCARYGQYGQHFSHGGMDVWGQGTLVTVSS VL: DIQMTQSPSSLSASVGDRVTITCRASQDISISLTWYQQKPGKAPKLLIYGAFSLQSGVPSRFSGSGSGTDFTLTISSLQPEDFATYYCQQFWFHPVTFGQGTKVEIKR |  | binds
MOR05026 Fab (Fab, V domains shown) VH: QVQLVQSGAEVKKPGSSVKVSCKASGGTFSSYAISWVRQAPGQGLEWMGNIYPIFGYANYAQKFQGRVTITADESTSTAYMELSSLRSEDTAVYYCARYGQYGQHFSHGGMDVWGQGTLVTVSS VL: DIQMTQSPSSLSASVGDRVTITCRASQDISISLTWYQQKPGKAPKLLIYGAFSLQSGVPSRFSGSGSGTDFTLTISSLQPEDFATYYCQQFWSEPVTFGQGTKVEIKR |  | binds
MOR05027 Fab (Fab, V domains shown) VH: QVQLVQSGAEVKKPGSSVKVSCKASGGTFSSYAISWVRQAPGQGLEWMGNIYPIFGYANYAQKFQGRVTITADESTSTAYMELSSLRSEDTAVYYCARYGQYGQHFSHGGMDVWGQGTLVTVSS VL: DIQMTQSPSSLSASVGDRVTITCRASQDISISLTWYQQKPGKAPKLLIYGAFSLQSGVPSRFSGSGSGTDFTLTISSLQPEDFATYYCQQFWTEPVTFGQGTKVEIKR |  | binds
